Substrate: CCCCCC(O)/C=C/C=O
Assay: LC/MS of GSHNE conjugate, initial rate
Assay type: biochemical, Oncorhynchus kisutch
Settings: 1 mM GSH, 30 °C, 10–150 μM HNE

B1: OlfGST pi; OkGST pi; GST pi (Oncorhynchus kisutch) (protein)
chain: MGPYTITYFGVRGRCGAMRIMMADQGQEWKEILMDFADWTKGDLKASCVFGQLPKFEDGGLVLYQSNAILRHLGRNHDAYGKDGKEAARIDMMCDGVEDLRLKYGKMIYQEYDTGKDQYIKDLPNHLDKFEAVMAKNKTGFLVGDKPSFADYSLFEVLLNHLVLCSSCLDTSPSLKSFVEKMSARPKIKAFLGSDAYKKLPINGNGKQ
Km: 160 ± 60 µM | Vmax: 0.5 µmol/min/mg | kcat: 0.37 ± 0.09 s⁻¹ | kcat/Km: 2300 ± 1100 M⁻¹ s⁻¹
